Measured values taken from publication PMC4072569 (Molecular Biology of the Cell, 2014).

B1: Blt1p-hexahistidine (natural protein, S. pombe, UniProt O74338 1-700, looked up)
chain: MSKSAFTSKSQLKGIDGSFNDPFRQPSMNLPTPPHDDGLPSIPRSTALPNLSNRLSPYSHRNYLPIPEADSRNLEVLNSISLTTGSVVNQINKLYQRSCDNANYLQDLRSLILQTPTAEANATQVTESLNQIQKILQEASSKDREQIVQVIKELNKGNSLEVRRELGNCLAHLKKGTLNIDNALQASLQKYWKELQYFNVSKDKLLSLEESIKLLSARLEETDTPSSTHWIEINAGFKEVGDELSENFQRKQEILSGLQNNVILRTNNRKPVGSDGSNSNFNGGEEQMDSKDQEEIQDYLNSLLSVHEKDGVLLQKFHNSYVQYQKLAVALSKYENFDADKLFQQMNLAKQSNETLLQTLTEQTDQLLSFKETMDSFKFILGPSMENQALQQGILAEQQDLVAQLRDIVLRSETLAENPSNMPGSCLPGASSNTADEFTEQLNLLKNEVARLSAICPSPNSGINASVLTNADNLEKENLLLVNNNAFKVDDRSVSSVALDDHNRQLQMNVEELEGKKADLTSKINRLDKDFVKLNTTYSLLTDQVKTKQLALQEIESRVIRLEERLNMLQKLSMQPAISSSSEFVPIESHPSSSAVVPIEEPKNSIIEKKRVPHNAARNSVNLEVTLPNSKKRFSSFSGSSSKLPVRPSTALTDKRKPSWSRRLAAAIGFSSGSPEKKHVITSSDAGHQRSKSRSFSSKM

Legend:
AUC = target: the molecule itself; experiment: AUC
Blt1p-hexahistidine = target: B1; experiment: pull-down

In the case of B1, the “stoichiometry N” value (AUC) is reported as 4.

B2: Sid2p-mEGFP (natural protein, S. pombe, UniProt Q09898 1-607, looked up)
chain: MNRVNDMSPVEGDLGLQLSSEADKKFDAYMKRHGLFEPGNLSNNDKERNLEDQFNSMKLSPVASSKENYPDNHMHSKHISKLPIASPIPRGLDRSGELSYKDNNHWSDRSSTGSPRWENGSMNLSVEEMEKVVQPKVKRMATICQMFFLDHYFEQLHYLYTRKQRARLFEEQLLKEPDSRRDELVKRYNGRERVYLRKRRTRISHGDFQTITQVGQGGYGSVWLARKRDTKEIVALKIMNKSVLHKMDEIRHVLTERDILTTANSEWLVRLLYAFQDTSNIYLAMEFVPGGDFRTLLSNSGVLRDHHAKFYATEMFLAIDALHQLGYIHRDLKPENFLVGASGHIKLTDFGLSSGIISKKKIESMKIRLQEVNNVVVPERSMRERRQVFRTLLSQDPVYAHSVVGSPDYMAPEVLRGENYNHSVDYWSLGCIMYECLSGFPPFSGSNVNETWSNLKNWRKCFQRPHYDDPRDLEFNWRDDAWDFVCHCITDPKDRFCSLKQVMQHPYFSKIDWKNVRTAYRPPFVPDLNSEIDAGYFDDFTNENDMSKYKEVHEKQAAIANMVNTFNKPKRNAFIGFTFRHQKNSHPTSSSSALSSPLSAPSFGTLL
B2 was tested, and the “percent pulled down from lysate” value (Blt1p-hexahistidine) was 22%.

B3: Mob1p-mEGFP (natural protein, S. pombe, UniProt O94360 1-210, looked up)
chain: MFGFSNKTAKTFRVRKTEAGTKHYQLRQYAEATLGSGSLMEAVKLPKGEDLNEWIAMNTMDFYTQINMLYGTITEFCTAASCPQMNAGPSYEYYWQDDKIYTKPTRMSAPDYINNLLDWTQEKLDDKKLFPTEIGVEFPKNFRKVIQQIFRRLFRIYAHIYCSHFHVMVAMELESYLNTSFKHFVFFCREFGLMDNKEYAPMQDLVDSMV
B3 was tested, and the “percent pulled down from lysate” value (Blt1p-hexahistidine) was 42%.

B4: Cdc15p-mEGFP (natural protein, S. pombe, UniProt Q09822 1-927, looked up)
chain: MEVNGVSQSEAAPYVTKSSVKFRDNFWGSEDAGMDALMSRTKSSLSVLESIDEFYAKRASIEREYASKLQELAASSADIPEVGSTLNNILSMRTETGSMAKAHEEVSQQINTELRNKIREYIDQTEQQKVVAANAIEELYQKKTALEIDLSEKKDAYEYSCNKLNSYMRQTKKMTGRELDKYNLKIRQAALAVKKMDAEYRETNELLLTVTREWIDRWTEVCDAFQHIEEYRLEFLKTNMWAYANIISTACVKDDESCEKIRLTLENTNIDEDITQMIQNEGTGTTIPPLPEFNDYFKENGLNYDIDQLISKAPSYPYSSSRPSASASLASSPTRSAFRPKTSETVSSEVVSSPPTSPLHSPVKPVSNEQVEQVTEVELSIPVPSIQEAESQKPVLTGSSMRRPSVTSPTFEVAARPLTSMDVRSSHNAETEVQAIPAATDISPEVKEGKNSENAITKDNDDIILSSQLQPTATGSRSSRLSFSRHGHGSQTSLGSIKRKSIMERMGRPTSPFMGSSFSNMGSRSTSPTKEGFASNQHATGASVQSDELEDIDPRANVVLNVGPNMLSVGEAPVESTSKEEDKDVPDPIANAMAELSSSMRRRQSTSVDDEAPVSLSKTSSSTRLNGLGYHSRNTSIASDIDGVPKKSTLGAPPAAHTSAQMQRMSNSFASQTKQVFGEQRTENSARESLRHSRSNMSRSPSPMLSRRSSTLRPSFERSASSLSVRQSDVVSPAPSTRARGQSVSGQQRPSSSMSLYGEYNKSQPQLSMQRSVSPNPLGPNRRSSSVLQSQKSTSSNTSNRNNGGYSGSRPSSEMGHRYGSMSGRSMRQVSQRSTSRARSPEPTNRNSVQSKNVDPRATFTAEGEPILGYVIALYDYQAQIPEEISFQKGDTLMVLRTQEDGWWDGEIINVPNSKRGLFPSNFVQTV
With B4 the “percent pulled down from lysate” value (Blt1p-hexahistidine) was 23%.
